The values that follow come from patent publication US20180371461, “[…], NUCLEIC ACID MOLECULES, POLYNUCLEOTIDES, […] ANTIBODIES COMPOSITIONS FOR […] PRRS VIRUSES AND […] PRRS VIRUS INFECTION” (AEROVIRUS TECHNOLOGIES INC., published 2018).

The subject of data set [1] is PRRSV LHVA-93-3 virion, M/GP5 surface complex (Porcine reproductive and respiratory syndrome virus type 2). Kind of data set: cell_activity. Particulars: protection of MARC-145 cells, 500 pmole aptamer, MTT assay; also reduces lung titre in swine. Background: Formazan colour is commonly taken as a measure of viable cells.
Data set [2] relates to PRRSV NVSL virion, M/GP5 surface complex (Porcine reproductive and respiratory syndrome virus type 2). Briefly: cell_activity. Particulars: protection of MARC-145 cells, 500 pmole aptamer, MTT assay.
Data set [3] addresses T1, PRRSV type 2 M(1-16)-S-S-GP5(31-61) disulfide-linked heterodimer peptide complex (Porcine reproductive and respiratory …).
T1 chain 1: MGSSLDDFCHDSTAPQ
T1 chain 2: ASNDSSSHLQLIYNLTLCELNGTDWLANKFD
Briefly: ELONA; streptavidin plate, PBS-T, 37 C. Particulars: protein: synthetic, tags: His-labelled (Ni-NTA captured), synthetic glycosylated peptide complex, disulfide M Cys9-GP5 Cys48.

In data set [4] the target is T2, PRRSV type 1 (Lelystad) M-S-S-GP5 disulfide-linked heterodimer peptide complex (Porcine reproductive and respiratory …, UniProt Q04565;Q04569).
T2 chain 1: MGGLDDFCNDPIAAQ
T2 chain 2: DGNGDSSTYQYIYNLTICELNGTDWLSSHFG
Kind of data set: ELONA; type 1 complex. The note with it: protein: synthetic.

Where [5] appears, read: label: biotin (reverse screening ELISA).

For the molecule “GGGCGACCCTGAAGAGTTTGTAATCTGCGATTTTAAAGTTGAGTCGTCGCGAAACGGTGAAAGCCGTAGGTTGCCC [A505 (CoocSeq5)]”, the values for the activity in data set [1] and in data set [2] were 60% and 70%, respectively.

B1: A505 (CoocSeq5) (ssDNA)
DNA: GGGCGACCCTGAAGAGTTTGTAATCTGCGATTTTAAAGTTGAGTCGTCGCGAAACGGTGAAAGCCGTAGGTTGCCC
With B1, the binding result in data set [3] (label: 5' biotin (reverse screening ELISA)) was “binds”.

B2: PEU-842 (ssDNA)
DNA: GGGCGACCCTGAAGAGGACCAGAAGCACGGACCACACACAGCGTATCGAAACGGTGAAAGCCGTAGGTTGCCC
Take B2: in data set [4], the binding result is given as “binds”.

B3: PEU-424 (ssDNA)
DNA: GGGCGACCCTGAAGAGGATGTTGATAGAGCGCCGACCACACACGCACGAAACGGTGAAAGCCGTAGGTTGCCC
For the molecule B3, the binding result in data set [4] is listed as “binds”.

B4: PEU-962 (ssDNA)
DNA: GGGCGACCCTGAAGAGGATAGACAATAGCACACCACGCCCCTGCCACGAAACGGTGAAAGCCGTAGGTTGCCC
Consider B4, for which, in data set [4], the binding result is reported as “binds”.

B5: A508 (CoocSeq8) (ssDNA)
DNA: GGGCGACCCTGAAGAGACTGGTGAGTTAATGTTTTTTCTTAGCCTTGTATCGAAACGGTGAAAGCCGTAGGTTGCCC
Take B5: in data set [3] (setting [5]), the binding result is “binds”.

B6: PEU-499 (ssDNA)
DNA: GGGCGACCCTGAAGAGTACACACGGGACACACACACACTCACTAGACGAAACGGTGAAAGCCGTAGGTTGCCC
On to B6, for which, in data set [4], the binding result was “binds”.

B7: A507 (CoocSeq7_HistoSeq14) (ssDNA)
DNA: GGGCGACCCTGAAGAGGTTTGCATATTATAGTTATAGGAGGTGTGTAATGGACGAAACGGTGAAAGCCGTAGGTTGCCC
With B7, the binding result in data set [3] (setting [5]) was “binds”.

B8: PEU-852 (ssDNA)
DNA: GGGCGACCCTGAAGAGGACACTGCACGTACACAACGAGGATGAACACGAAACGGTGAAAGCCGTAGGTTGCCC
On to B8, for which the binding result in data set [4] is recorded as “binds”.
